Where two headings read alike, the source gives them in different places.
B1: ICAM-2: biochemically purified soluble human ICAM-2 protein from retrovirally transduced NIH3T3 cells; ICAM-2-FC fusion also used (protein, UniProt P13598 25-223, looked up)
extracellular domain: KVFEVHVRPKKLAVEPKGSLEVNCSTTCNQPEVGGLETSLDKILLDEQAQWKHYLVSNISHDTVLQCHFTCSGKQESMNSNVSVYQPPRQVILTLQPTLVAVGKSFTIECRVPTVEPLDSLTLFLFRGNETLHYETFGKAAPAPQEATATFNSTADREDGHRNFSCLAVLDLMSRGGNIFHKHSAPKMLEIYEPVSDSQ
modifications: extracellular domain
notes: biochemically purified soluble human ICAM-2 protein from retrovirally transduced NIH3T3 cells; ICAM-2-FC fusion also used

Columns and labels:
p44/42 MAPK [1] = experiment: intracellular phospho-p44/42 MAPK by flow cytometry in ICAM-2 treated Jurkat cells; format: cell-based, human; settings: chemical agents 10 μM, EDTA 1 mM; mAbs titrated prior to ICAM-2
Source text: A) Mean fluorescent intensity values (MFI) of ICAM-2-FITC (adhesion) and mAb24-Alexa633, (LFA-1, activation) in treated Jurkat cells (as above). Control unstimulated and/or compound pretreated values were subtracted. B) Top panel: Intracellular phospho-p44/42, MAPK detection as a function of ICAM-2, dose in Jurkat cells by flow cytometry (see Material and Methods). Mean fluorescent intensity values (MFI) were plotted±standard deviation (SD). Bottom panel: ICAM-2, treated Jurkat cells were stained for intracellular phospho-p44/42, MAPK as described above. mAbs to β2, and αL, integrins (10, μg/ml, 10, minutes) were titrated prior to ICAM-2, treatment as indicated and plotted for MFI±SD. C) ICAM-2, induced p44/42, MAPK activity is blocked by β2, and αL, integrin antibodies as determined by a p44/42 MAPK kinase assay. Conditions for induction and inhibition are as described above. Recombinant active p44/42, MAPK served as an internal positive control (denoted by “+”). D) Inhibition and activation profile for intracellular phospho-p44/42, by flow cytometry in the presences of chemical agents (10, μM), EDTA (1, mM), or PMA, ionomycin and ICAM-2, stimulus (as indicated above). MFI values±SD are plotted.
Intracellular and extracellular staining was performed as described (Perez and Nolan, 2002). Intracellular probes for active kinases were made by conjugating phospho-specific antibodies to the ALEXA FLUOR® dye series as described and used in phospho-protein optimized conditions (Perez and Nolan, 2002). Kinetic analyses was performed by direct application of fixation buffer in time synchronized 96-wells maintained at 37° C. Intracellular actin and microtubule staining was performed using phalloidin-Alexa633 and taxol-Alexa546 dyes (Molecular Probes). Adhesion and clustering assays were performed using ICAM-2-FITC as described in text. LFA-1 activation was assessed by either mAb24-Alexa633 or mAb24-Alexa546 conjugate, surface stained at 37° C. Flow cytometry data are representative of 3 independent experiments of 10^6 cells/sample. 10-50,000 events were collected and manually calibrated on a FACSCalibur™ machine. Data plotted in bar graph format is expressed as geometric mean fluorescence intensity (MFI) and normalized for isotype controls. Log ratios are defined as the MFI of stimulus to the MFI of unstimulated cells. Data was analyzed using Flowjo™ software (Treestar).

p44/42 MAPK [2] = experiment: phospho-p44/42 MAPK immunoblot and p44/42 MAPK kinase assay in soluble ICAM-2 treated Jurkat cells; format: cell-based, human

Molecule	effect on ICAM-2 induced p44/42 MAPK phosphorylation (p44/42 MAPK [1])	p44/42 MAPK phosphorylation and activity on ICAM-2 treatment (p44/42 MAPK [2])	p44/42 MAPK phosphorylation and activity on ICAM-2 treatment (p44/42 MAPK [2]; listed as soluble ICAM-2)
CN(C)CCCn1cc(C2=C(c3c[nH]c4ccccc34)C(=O)NC2=O)c2ccccc21 [bisindolymaleimide I]	diminished	–	–
B1	–	induced both p44/42 MAPK phosphorylation and activation	induced p44/42, MAPK phosphorylation and activity

Reference: US8962263B2, “Methods and compositions for detecting the activation state of multiple proteins in single cells” (The Board of Trustees of the Leland Stanford Junior …, priority 2001, dated 2015)
